Consider two substances from patent US20240261333A1, “NOVEL TARGETS FOR ENHANCING ANTI-TUMOR IMMUNITY” (THE BROAD INSTITUTE, INC., priority 2021, published 2024).

One test deals with TFAM (human) (UniProt Q00059). In words: co-IP with mouse anti-FLAG from lysate of cells overexpressing C-FLAG B3GNT2, then mass spectrometry.
A further test addresses TIMP3 (human) (UniProt P35625). The description is as above.
The next test addresses MYH11 (human) (UniProt P35749). In words: co-IP, IgG control, lysate of cells with C-FLAG B3GNT2; mass spectrometry.
The next test deals with C1orf68 (human) (UniProt Q5T750). Described as above.
C1orf68 (human), sequence (Q5T750 whole entry): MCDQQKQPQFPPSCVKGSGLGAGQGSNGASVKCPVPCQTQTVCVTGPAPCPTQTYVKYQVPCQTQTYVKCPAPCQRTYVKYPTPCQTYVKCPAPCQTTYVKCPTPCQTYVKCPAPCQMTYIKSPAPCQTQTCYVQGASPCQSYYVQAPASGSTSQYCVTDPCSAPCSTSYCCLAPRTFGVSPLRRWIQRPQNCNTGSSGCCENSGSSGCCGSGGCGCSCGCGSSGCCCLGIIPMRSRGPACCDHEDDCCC
In the next test the target is SAMM50 (human) (UniProt Q9Y512). Described as above.
SAMM50 (human), sequence (Q9Y512 whole entry): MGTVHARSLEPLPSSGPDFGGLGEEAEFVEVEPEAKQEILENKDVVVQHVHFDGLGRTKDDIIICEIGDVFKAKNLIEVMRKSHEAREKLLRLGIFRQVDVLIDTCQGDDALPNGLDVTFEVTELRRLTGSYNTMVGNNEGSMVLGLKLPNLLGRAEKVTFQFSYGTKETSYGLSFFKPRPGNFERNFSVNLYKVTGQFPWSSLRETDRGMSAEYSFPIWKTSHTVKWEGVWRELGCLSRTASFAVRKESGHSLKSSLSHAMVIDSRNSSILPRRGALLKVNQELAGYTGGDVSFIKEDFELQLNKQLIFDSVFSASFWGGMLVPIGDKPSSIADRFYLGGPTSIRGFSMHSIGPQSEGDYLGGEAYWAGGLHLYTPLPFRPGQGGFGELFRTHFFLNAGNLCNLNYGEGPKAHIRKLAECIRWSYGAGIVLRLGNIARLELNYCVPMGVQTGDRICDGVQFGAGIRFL
A further test has as its target ARPC4 (human) (UniProt P59998). The description is as above.
For a further test, the target named is SPTAN1 (human) (UniProt Q13813). Described as above.
The next test concerns the target ATXN2 (human) (UniProt Q99700). The description is as above.
Another test deals with HSPA8 (human) (UniProt P11142). Described as above.
A further test concerns the target DNAJC3 (human) (UniProt Q13217). The test is described as above.
For a further test, the target named is RPL4 (human) (UniProt P36578). Described as above.
The target in a further test is RPS28 (human) (UniProt P62857). Described as above.
The next test concerns the target RPL10 (human) (UniProt P27635). Described as above.
The target of the next test is PRBP1 (human) (UniProt P26599). The description is as above.
PRBP1 (human), sequence (P26599 whole entry): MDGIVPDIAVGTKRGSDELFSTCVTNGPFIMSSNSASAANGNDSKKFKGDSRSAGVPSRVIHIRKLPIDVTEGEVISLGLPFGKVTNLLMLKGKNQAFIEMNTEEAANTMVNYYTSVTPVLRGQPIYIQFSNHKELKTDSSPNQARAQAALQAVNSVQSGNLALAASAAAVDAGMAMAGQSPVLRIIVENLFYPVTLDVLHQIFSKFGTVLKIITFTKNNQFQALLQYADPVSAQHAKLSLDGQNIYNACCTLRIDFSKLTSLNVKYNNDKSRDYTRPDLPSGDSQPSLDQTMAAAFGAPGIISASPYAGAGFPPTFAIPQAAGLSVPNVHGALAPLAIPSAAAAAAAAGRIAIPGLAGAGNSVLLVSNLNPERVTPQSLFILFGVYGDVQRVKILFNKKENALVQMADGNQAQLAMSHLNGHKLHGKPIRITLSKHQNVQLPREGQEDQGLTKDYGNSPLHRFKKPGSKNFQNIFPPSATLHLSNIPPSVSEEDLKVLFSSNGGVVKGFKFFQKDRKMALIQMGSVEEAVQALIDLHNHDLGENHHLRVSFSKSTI
A further test concerns the target T1, MOV10 (human) (UniProt Q9HCE1).
T1 sequence (looked up): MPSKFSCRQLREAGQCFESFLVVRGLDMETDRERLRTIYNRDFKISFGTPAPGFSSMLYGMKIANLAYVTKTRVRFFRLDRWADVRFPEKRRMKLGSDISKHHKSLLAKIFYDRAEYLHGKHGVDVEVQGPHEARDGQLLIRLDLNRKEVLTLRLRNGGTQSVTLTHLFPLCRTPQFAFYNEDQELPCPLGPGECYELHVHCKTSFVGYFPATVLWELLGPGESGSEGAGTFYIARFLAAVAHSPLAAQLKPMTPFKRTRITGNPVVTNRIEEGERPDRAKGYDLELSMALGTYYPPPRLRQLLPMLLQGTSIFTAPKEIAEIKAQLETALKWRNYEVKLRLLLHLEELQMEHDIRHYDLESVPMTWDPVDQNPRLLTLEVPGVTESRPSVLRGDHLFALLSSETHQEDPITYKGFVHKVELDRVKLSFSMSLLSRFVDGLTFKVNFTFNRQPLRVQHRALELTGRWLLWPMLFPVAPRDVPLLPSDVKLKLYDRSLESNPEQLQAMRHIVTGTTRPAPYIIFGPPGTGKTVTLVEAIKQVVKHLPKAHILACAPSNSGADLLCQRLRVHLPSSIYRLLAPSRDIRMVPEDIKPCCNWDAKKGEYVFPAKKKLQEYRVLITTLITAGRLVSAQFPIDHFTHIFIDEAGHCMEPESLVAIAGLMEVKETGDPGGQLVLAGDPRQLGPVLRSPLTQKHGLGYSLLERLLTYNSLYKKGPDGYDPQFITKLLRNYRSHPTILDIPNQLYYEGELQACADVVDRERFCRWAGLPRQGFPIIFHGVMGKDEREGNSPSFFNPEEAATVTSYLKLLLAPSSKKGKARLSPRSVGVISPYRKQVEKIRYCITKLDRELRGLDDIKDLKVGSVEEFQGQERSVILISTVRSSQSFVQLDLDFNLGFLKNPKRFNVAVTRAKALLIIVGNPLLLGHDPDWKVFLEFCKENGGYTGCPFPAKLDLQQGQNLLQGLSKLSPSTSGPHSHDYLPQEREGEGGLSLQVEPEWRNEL
Described as above.

The target of the next test is T2, SERBP1 (human) (UniProt Q8NC51).
T2 sequence (looked up): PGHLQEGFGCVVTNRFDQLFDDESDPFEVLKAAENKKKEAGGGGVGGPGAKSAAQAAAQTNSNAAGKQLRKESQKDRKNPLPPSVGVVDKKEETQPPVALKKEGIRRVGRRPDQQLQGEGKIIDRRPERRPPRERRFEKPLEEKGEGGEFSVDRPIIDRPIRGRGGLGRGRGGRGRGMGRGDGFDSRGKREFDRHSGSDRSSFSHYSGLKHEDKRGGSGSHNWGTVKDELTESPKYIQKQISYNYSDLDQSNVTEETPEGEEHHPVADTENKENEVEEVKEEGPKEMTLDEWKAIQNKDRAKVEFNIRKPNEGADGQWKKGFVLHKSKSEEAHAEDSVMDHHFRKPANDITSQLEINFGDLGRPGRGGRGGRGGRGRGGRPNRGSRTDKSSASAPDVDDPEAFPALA
Described as above.

The target in another test is HUWE1 (human) (UniProt Q7Z6Z7). The test is described as above.
A further test deals with RPL13 (human) (UniProt P26373). Described as above.
For another test, the target named is HNRNPK (human) (UniProt P61978). The description is as above.
The next test deals with FUBP3 (human) (UniProt Q96I24). Described as above.
FUBP3 (human), sequence (Q96I24 2-572 limits assumed): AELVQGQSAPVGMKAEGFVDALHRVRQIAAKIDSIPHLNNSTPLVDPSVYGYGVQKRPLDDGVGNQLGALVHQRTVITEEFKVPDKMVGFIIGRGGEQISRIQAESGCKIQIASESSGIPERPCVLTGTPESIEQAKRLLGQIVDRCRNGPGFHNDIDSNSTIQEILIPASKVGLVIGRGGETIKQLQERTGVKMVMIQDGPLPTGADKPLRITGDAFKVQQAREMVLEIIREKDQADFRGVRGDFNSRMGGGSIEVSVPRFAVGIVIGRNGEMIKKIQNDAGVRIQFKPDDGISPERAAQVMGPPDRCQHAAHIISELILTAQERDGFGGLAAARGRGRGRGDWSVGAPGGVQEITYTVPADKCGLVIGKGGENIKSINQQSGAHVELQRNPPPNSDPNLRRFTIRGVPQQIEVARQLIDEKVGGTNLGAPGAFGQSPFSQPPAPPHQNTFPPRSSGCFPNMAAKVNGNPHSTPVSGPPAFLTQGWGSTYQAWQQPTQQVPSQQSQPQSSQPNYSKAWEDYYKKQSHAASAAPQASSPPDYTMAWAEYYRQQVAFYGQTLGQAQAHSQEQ
The next test concerns the target LSM12 (human) (UniProt Q3MHD2). The description is as above.

MYH11 (human), sequence (P35749 other isoform, or with tags, fused parts or gaps limits assumed): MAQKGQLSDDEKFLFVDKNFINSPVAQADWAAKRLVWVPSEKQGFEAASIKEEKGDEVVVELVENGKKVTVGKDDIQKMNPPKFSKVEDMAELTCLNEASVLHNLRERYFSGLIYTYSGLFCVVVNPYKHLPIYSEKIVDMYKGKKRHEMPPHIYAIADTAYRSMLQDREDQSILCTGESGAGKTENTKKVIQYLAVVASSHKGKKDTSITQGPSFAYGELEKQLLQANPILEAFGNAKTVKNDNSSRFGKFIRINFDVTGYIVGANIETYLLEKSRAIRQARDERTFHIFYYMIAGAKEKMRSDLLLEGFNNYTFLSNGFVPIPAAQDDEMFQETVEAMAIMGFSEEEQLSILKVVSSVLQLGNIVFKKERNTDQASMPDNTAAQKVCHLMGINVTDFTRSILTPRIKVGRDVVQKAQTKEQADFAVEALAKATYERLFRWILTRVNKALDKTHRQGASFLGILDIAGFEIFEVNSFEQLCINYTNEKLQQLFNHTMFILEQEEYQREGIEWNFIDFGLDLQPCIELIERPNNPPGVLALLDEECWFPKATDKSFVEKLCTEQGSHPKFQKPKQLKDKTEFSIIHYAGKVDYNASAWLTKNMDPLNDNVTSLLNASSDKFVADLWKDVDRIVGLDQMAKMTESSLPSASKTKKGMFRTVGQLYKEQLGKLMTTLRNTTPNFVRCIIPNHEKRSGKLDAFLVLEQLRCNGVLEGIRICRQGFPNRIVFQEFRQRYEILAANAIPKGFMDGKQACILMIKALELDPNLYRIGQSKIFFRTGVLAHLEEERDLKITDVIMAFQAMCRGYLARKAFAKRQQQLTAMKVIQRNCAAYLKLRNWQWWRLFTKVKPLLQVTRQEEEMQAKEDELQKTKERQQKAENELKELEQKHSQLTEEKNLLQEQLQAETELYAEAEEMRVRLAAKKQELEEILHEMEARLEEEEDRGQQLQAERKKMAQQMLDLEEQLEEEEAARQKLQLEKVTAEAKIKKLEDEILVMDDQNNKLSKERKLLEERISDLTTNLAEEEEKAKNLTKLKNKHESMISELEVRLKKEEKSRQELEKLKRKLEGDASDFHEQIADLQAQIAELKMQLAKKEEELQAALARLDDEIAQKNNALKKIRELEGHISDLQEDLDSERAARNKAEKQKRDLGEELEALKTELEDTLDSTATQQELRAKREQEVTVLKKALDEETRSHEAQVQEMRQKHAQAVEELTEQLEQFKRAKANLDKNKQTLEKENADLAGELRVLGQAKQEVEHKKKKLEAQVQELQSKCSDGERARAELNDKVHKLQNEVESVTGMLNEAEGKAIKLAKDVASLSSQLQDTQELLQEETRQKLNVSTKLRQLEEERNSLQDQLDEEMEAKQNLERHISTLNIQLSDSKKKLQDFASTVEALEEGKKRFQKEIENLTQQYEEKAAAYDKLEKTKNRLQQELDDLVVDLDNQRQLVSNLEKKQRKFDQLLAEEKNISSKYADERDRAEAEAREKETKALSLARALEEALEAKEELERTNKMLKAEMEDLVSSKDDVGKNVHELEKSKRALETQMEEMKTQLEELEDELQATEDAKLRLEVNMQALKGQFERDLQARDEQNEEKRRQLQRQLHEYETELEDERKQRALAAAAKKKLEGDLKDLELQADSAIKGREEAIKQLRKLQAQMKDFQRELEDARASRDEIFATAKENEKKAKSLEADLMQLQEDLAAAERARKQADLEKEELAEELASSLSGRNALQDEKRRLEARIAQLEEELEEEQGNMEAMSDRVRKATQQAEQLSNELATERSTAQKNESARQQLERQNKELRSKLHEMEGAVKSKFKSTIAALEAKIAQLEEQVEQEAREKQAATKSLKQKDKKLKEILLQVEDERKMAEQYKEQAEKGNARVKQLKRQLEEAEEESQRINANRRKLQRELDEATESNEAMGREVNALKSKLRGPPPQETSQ
TFAM (human), sequence (Q00059 43-246 limits assumed): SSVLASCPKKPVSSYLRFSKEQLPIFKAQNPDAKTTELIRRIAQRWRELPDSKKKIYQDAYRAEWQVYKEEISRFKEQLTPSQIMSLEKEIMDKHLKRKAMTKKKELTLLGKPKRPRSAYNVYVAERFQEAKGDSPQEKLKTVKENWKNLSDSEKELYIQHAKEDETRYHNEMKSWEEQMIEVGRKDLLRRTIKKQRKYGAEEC
DNAJC3 (human), sequence (Q13217 32-504 limits assumed): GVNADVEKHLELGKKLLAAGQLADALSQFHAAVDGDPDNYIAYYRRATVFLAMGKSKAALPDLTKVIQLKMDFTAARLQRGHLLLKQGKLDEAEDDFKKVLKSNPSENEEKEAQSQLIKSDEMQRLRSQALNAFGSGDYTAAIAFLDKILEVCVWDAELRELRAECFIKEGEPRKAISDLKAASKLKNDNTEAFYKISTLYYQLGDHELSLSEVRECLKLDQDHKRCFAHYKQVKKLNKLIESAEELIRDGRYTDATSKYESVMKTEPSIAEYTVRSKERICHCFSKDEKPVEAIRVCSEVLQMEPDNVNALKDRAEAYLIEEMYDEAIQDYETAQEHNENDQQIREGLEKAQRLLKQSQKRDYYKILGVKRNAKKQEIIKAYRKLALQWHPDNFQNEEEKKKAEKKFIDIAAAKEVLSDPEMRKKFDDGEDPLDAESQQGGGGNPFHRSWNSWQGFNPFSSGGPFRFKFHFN
TIMP3 (human), sequence (P35625 24-211 limits assumed): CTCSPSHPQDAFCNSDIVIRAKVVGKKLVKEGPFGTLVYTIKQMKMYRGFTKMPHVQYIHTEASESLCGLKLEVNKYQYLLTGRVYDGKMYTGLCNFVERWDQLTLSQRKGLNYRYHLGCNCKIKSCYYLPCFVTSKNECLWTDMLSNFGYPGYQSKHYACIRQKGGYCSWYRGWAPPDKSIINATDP
LSM12 (human), sequence (Q3MHD2 2-195 limits assumed): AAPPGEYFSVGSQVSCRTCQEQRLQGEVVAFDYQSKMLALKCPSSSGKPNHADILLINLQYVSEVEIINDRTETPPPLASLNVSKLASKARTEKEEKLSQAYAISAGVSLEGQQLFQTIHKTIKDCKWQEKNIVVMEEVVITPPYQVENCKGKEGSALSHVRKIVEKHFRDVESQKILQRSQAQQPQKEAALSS

For the substance “C-terminal FLAG tagged B3GNT2 (from UniProt Q9NY97 1-397) (enzyme)”, the co-IP mass spectrometry count (C-term flag) with TFAM (human) and with TIMP3 (human) was 3 each time.
As to “IgG control (Millipore Sigma 12-371) (antibody)”, the co-IP mass spectrometry count with MYH11 (human) came to 5; in the test with C1orf68 (human), 4; with SAMM50 (human) it was 0; with ARPC4 (human), 0; with SPTAN1 (human), 0; in the test with ATXN2 (human), 3. For the same substance, the co-IP mass spectrometry count in the test with HSPA8 (human) came to 15; with DNAJC3 (human), 0; in the test with RPL4 (human) it was 6; in the test with RPS28 (human), 0; with RPL10 (human), 3; with PRBP1 (human), 6. Further, the co-IP mass spectrometry count with MOV10 (human) turned out to be 3; with SERBP1 (human), 5; with HUWE1 (human), 0; with RPL13 (human) it was 8; with HNRNPK (human), 10; with FUBP3 (human) it was 7. This substance also returned a co-IP mass spectrometry count with LSM12 (human) of 0.
